From patent US20240327506A1, “METHODS AND COMPOSITION FOR THE SELECTIVE ENHANCEMENT OF ADOPTIVE CELL THERAPY” (MaineHealth, priority 2023, published 2024)

Molecular target: T1, β3 integrin (Homo sapiens, UniProt P05106+P06756)
T1 construct: we next stimulated human Jurkat T-cells or primary CD8+ T-cells with a synthetic version of the soluble RGDKGE; endogenous in cells; host or cells: Jurkat T-cells
Assay: Western blot of β3 integrin phosphorylation in Jurkat T-cells after peptide stimulation
Type: cell-based
Conditions: compared to control peptide CP
Protocol: FIGS. 2A-2F. Detection of RGDKGE (SEQ ID NO: 1)-containing collagen peptide in malignant tumor cells and expression of key signaling molecules in T-cells. Briefly, whole cell lysates and serum free concentrated conditioned medium was prepared from tumor cells lines. FIG. 2A. Western blot analysis of whole cell lysates from human C8161 and murine B16F10 melanoma cells for the expression of the low molecular weight 16 kDa RGDKGE (SEQ ID NO: 1)-containing collagen peptide (XL313) or actin as a loading control. FIG. 2B. […]
Whole cell and CAM tissue lysates were collected in RIPA buffer (10 mM Tris-HCl, pH 8.0; 1 mM EDTA; 0.5 mM EGTA; 1% Triton X-100; 0.1% Sodium Deoxycholate; 0.1% SDS; 140 mM NaCl) supplemented with 1× protease inhibitor and 1× phosphatase inhibitor and were run on polyacrylamide gels using denaturing conditions. […] Western blot bands were quantified using Image J software based on pixel intensity.
We previously made the surprising observation that a small bioactive collagen peptide containing the core amino acid sequence RGDKGE (SEQ ID NO: 1) could be generated inside a subset of M2-like activated macrophages as well as a variety of other malignant tumor cells, and then actively secreted outside the cells (11-13). Importantly, minimal levels of this soluble collagen peptide was detected in normal cells (13). […]

T1 sequence (P05106 27-788): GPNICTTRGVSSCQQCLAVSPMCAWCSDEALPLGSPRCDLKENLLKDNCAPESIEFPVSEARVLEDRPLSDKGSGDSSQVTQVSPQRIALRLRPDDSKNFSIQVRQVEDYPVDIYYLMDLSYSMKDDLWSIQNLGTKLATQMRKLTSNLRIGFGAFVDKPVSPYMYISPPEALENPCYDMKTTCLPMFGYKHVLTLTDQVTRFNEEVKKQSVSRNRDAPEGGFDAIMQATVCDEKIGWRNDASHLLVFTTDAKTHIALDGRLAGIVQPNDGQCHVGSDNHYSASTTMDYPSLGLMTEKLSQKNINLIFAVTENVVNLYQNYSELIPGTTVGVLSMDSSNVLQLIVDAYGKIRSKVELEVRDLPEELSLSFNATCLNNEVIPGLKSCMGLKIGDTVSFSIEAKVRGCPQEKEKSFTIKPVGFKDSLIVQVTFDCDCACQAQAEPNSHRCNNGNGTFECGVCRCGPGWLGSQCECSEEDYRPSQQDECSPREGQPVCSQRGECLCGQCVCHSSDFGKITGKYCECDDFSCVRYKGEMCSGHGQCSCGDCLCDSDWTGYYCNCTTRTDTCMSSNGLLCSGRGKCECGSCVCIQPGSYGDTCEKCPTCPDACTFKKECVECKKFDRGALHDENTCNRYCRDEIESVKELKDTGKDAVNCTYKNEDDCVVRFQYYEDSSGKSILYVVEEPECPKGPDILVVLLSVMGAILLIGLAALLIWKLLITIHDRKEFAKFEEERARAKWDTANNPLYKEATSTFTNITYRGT
T1 sequence (P06756 31-889 limits assumed): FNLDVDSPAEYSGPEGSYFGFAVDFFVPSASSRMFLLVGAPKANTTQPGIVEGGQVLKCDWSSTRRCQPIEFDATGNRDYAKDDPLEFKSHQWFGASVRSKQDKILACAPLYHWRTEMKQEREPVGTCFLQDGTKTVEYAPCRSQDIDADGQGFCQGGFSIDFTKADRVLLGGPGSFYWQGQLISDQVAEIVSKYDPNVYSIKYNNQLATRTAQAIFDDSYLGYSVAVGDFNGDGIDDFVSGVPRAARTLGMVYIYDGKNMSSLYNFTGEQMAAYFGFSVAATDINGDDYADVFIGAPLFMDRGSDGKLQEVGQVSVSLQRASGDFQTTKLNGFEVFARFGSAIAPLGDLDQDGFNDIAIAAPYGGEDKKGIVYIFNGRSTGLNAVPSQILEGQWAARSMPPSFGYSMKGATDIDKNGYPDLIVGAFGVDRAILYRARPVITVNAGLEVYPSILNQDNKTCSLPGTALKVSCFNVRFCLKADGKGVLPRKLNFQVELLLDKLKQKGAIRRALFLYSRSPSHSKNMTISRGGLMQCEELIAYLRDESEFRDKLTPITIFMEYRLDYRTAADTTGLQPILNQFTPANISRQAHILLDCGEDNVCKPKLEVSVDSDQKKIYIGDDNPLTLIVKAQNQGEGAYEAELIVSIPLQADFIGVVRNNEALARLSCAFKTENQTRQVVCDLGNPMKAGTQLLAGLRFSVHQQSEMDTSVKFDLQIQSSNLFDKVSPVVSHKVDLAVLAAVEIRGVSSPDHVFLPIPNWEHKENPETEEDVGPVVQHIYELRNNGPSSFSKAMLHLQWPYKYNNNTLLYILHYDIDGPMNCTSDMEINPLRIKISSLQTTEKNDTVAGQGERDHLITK
T1 sequence (P06756 891-1048 partner limits assumed): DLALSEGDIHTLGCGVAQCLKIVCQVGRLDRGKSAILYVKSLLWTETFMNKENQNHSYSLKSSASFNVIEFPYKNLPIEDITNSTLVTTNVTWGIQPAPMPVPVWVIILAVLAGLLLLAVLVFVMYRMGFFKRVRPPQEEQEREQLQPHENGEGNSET

β3 integrin phosphorylation: enhanced β3 integrin phosphorylation
Sequence: QGPRGDKGE (CQGPRGDKGEC; Synthetic: Synthetic collagen RGD containing peptide P-2) [Peptide P2, synthetic version of the soluble RGDKGE-containing collagen peptide]
